The target of the test is CTLA4 (UniProt P16410 36-161, limits assumed). The test is described as follows: Octet BLI, antigen immobilized, B-Body as analyte. An excerpt:
In each instance, the antigen is immobilized and the B-Body is the analyte.
(In general: Biolayer interferometry detects binding as a change in optical thickness at a sensor tip.)

Sequence of CTLA4 (P16410 36-161 limits assumed): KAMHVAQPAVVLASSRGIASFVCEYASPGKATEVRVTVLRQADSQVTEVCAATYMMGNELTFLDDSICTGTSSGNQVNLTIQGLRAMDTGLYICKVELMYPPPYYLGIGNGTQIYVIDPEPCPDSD

B1: bivalent bispecific B-Body "BC1" (bispecific antibody)
chain 1: not shown
chain 2: EVQLVESGGGLVQPGGSLRLSCAASGFTFSDYDIHWVRQAPGKGLEWVGDITPYDGTTNYADSVKGRFTISADTSKNTAYLQMNSLRAEDTAVYYCARLVGEIATGFDYWGQGTLVTVSSASPREPQVYTDPPSRDELTKNQVSLTCLVKGFYPSDIAVEWESNGQPENNYKTTPPVLDSDGSFFLYSKLTVDKSRWQQGNVFSCSVMHEALHNHYTQKSLSLSGEC
chain 3: not shown
chain 4: QVQLVESGGGVVQPGRSLRLDCKASGITFSNSGMHWVRQAPGKGLEWVAVIWYDGSKRYYADSVKGRFTISRDNSKNTLFLQMNSLRAEDTAVYYCATNDDYWGQGTLVTVSSASTKGPSVFPLAPSSKSTSGGTAALGCLVKDYFPEPVTVSWNSGALTSGVHTFPAVLQSSGLYSLSSVVTVPSSSLGTQTYICNVNHKPSNTKVDKKVEPPKSC
notes: Specific for PD1 (nivolumab variable regions) and Antigen A; four different chains, one of each; also called bivalent 1×1 bispecific construct BC1
Regarding B1, the binding result is “no binding”.
